Results: US20120244144A1 (University of Texas, published 2012)

B1: 1B7 Fab (Fab)
chain: DIQMTQSPALMSASPGEKVTMTCSASSSVSFMYWYQQKPRSSPKPWIYLTSNLPSGVPARFSGSGSGTSYSLTISSMEAEDAATYYCQQWSSHPPTFGSGTKLEIKRGGGGSGGGGSGGGGSGGGGSEVQLQQSGSELVRPGASVKLSCKASGYKFTSYWMHWVKQRPGQGLEWIGNIFPGSGSTNYDEKFNSKATLTVDTSSNTAYMQLSSLTSEDSAVYYCTRWLSGAYFDYWGQGTTLTVSSASGA

How the values were obtained:
[1] = target: pertussis toxin holotoxin (Bordetella pertussis) (UniProt P04977); assay: cell-based or functional assay
[2] = target: pertussis toxin holotoxin (Bordetella pertussis) (UniProt P04977); assay: competition ELISA (Friguet), 5 nM antibody, soluble PT
[3] = target: pertussis toxin holotoxin (Bordetella pertussis), P04977; details: remark: other sources report otherwise

Molecule | In Vitro Neutralization (nM), minimum protective concentration, CHO clustering assay [1] | Kd [2] | Kd [3]
11E6 Fab | 42 nM | 9.3 nM | –
1B7 F(ab)2 | 15 nM | – | –
11E6 scAb (scFv) | 377 nM | 19 nM | –
B1 | – | – | 2 nM
